Data on two molecules can be found in article PMC4949388 (Brain, 2015).

As a reminder, the stoichiometry N is a count of units in the complex or per binding partner.

Series [1] deals with CSF BuChE (human (endogenous in CSF)) (UniProt P06276). In words: co-sedimentation.
The series “co-sedimentation” deals with the molecule itself. Briefly: co-sedimentation.

Consider “CSF BuChE (from UniProt P06276 29-602) (enzyme)”, for which the stoichiometry N in series [1] worked out at 4.

B1: highly purified BuChE from human serum (enzyme)
chain: EDDIIIATKNGKVRGMNLTVFGGTVTAFLGIPYAQPPLGRLRFKKPQSLTKWSDIWNATKYANSCCQNIDQSFPGFHGSEMWNPNTDLSEDCLYLNVWIPAPKPKNATVLIWIYGGGFQTGTSSLHVYDGKFLARVERVIVVSMNYRVGALGFLALPGNPEAPGNMGLFDQQLALQWVQKNIAAFGGNPKSVTLFGESAGAASVSLHLLSPGSHSLFTRAILQSGSFNAPWAVTSLYEARNRTLNLAKLTGCSRENETEIIKCLRNKDPQEILLNEAFVVPYGTPLSVNFGPTVDGDFLTDMPDILLELGQFKKTQILVGVNKDEGTAFLVYGAPGFSKDNNSIITRKEFQEGLKIFFPGVSEFGKESILFHYTDWVDDQRPENYREALGDVVGDYNFICPALEFTKKFSEWGNNAFFYYFEHRSSKLPWPEWMGVMHGYEIEFVFGLPLERRDNYTKAEEILSRSIVKRWANFAKYGNPNETQNNSTSWPVFKSTEQKYLTLNTESTRIMTKLRAQQCRFWTSFFPKVLEMTGNIDEAEWEWKAGFHRWNNYMMDWKNQFNDYTSKKESCVGL
On to B1, for which the “stoichiometry N” value in “co-sedimentation” turned out to be 4.
